The data set deals with the molecule itself. Kind of data set: crystal structure.

B1: N141A HincII (enzyme)
chain: MSFIKPIYQDINSILIGQKVKRPKSGTLSGHAAGEPFEKLVYKFLKENLSDLTFKQYEYLNDLFMKNPAIIGHEARYKLFNSPTLLFLLSRGKAATENWSIENLFEEKQNDTADILLVKDQFYELLDVKRRNISKSAQAPAIISAYKLAQTCAKMIDNKEFDLFDINYLEVDSELNGEDLVCVSTSFAELFKSEPSELYINWAAAMQIQFHVRDLDQGFNGTREEWAKSYLKHFVTQAEQRAISMIDKFVKPFKKYIL
As to B1, the “stoichiometry N” value was 2.

The values above are taken from article PMC2637360 (Structure (London, England : 1993), 2008).
